Data reported in the RNAGym collection of RNA variant scans (doi:10.7554/elife.90254).

B1: LINE1-full (parent)
chain: UACGUAGGUGGUUUUCCCCUGAUAGUGCUAAGGGGGCCUGGAAGUUUGGACUGGGCAGAGCUCAACACAGCGUGGCAAAGUGGCUGUGGCUAGACUGCCUCUCUGGAUUCCUCGUCACUCAGCAGGGCAUCUCUGAGAGAAAUGCC

Variants of: B1
Test: self-cleavage, relative activity (ratio to wild type); higher = more cleavage; in vitro, sequencing; the parent is a self-cleaving ribozyme

Q: With A31U C110A as the variant, how does the self-cleavage read?
A: 0.91

Q: For A65G A129U, which self-cleavage is on record?
A: 0.02

Q: For A121U G126U, which self-cleavage is on record?
A: 1.5

Q: With U96A A138G as the variant, how does the self-cleavage read?
A: 0.07

Q: With C3U G7C as the variant, how does the self-cleavage read?
A: 0

Q: Which self-cleavage does the source give for A57G U119A here?
A: 0.85

Q: With G33A U96C as the variant, how does the self-cleavage read?
A: 0.12

Q: With U45G A64G as the variant, how does the self-cleavage read?
A: 0.24

Q: Which self-cleavage does the source give for C90A A107U here?
A: 0.03

Q: With U14C G27A as the variant, how does the self-cleavage read?
A: 1.15

Q: Which self-cleavage does the source give for U45C here?
A: 1.36

Q: Which self-cleavage does the source give for A2U A67C here?
A: 0.12

Q: With U62C A124U as the variant, how does the self-cleavage read?
A: 0.05

Q: With A57G G137A as the variant, how does the self-cleavage read?
A: 0.99

Q: With U29A U73A as the variant, how does the self-cleavage read?
A: 1.55

Q: Which self-cleavage does the source give for A64G U109A here?
A: 0.14

Q: With A22G A24G as the variant, how does the self-cleavage read?
A: 0.98

Q: Which self-cleavage does the source give for A69U G80U here?
A: 0.03

Q: Which self-cleavage does the source give for U9C C113A here?
A: 1.2

Q: With U62A A124G as the variant, how does the self-cleavage read?
A: 0.02

Q: With U1C U47C as the variant, how does the self-cleavage read?
A: 0.97

Q: For U9A C103U, which self-cleavage is on record?
A: 0.84

Q: For G27A A94U, which self-cleavage is on record?
A: 0.18

Q: For U52C U134A, which self-cleavage is on record?
A: 1.07

Q: For G40A U130G, which self-cleavage is on record?
A: 1.19

Q: With U81G U104C as the variant, how does the self-cleavage read?
A: 0.26

Q: With G25A A64U as the variant, how does the self-cleavage read?
A: 0.4

Q: With A65U C133U as the variant, how does the self-cleavage read?
A: 0.16

Q: With U9C U20G as the variant, how does the self-cleavage read?
A: 1.16

Q: For A2C U73A, which self-cleavage is on record?
A: 1.29

Q: For G10A G97A, which self-cleavage is on record?
A: 0.09

Q: For U9C A129G, which self-cleavage is on record?
A: 1.66

Q: Which self-cleavage does the source give for U9C A140G here?
A: 1.19

Q: With A67C A77G as the variant, how does the self-cleavage read?
A: 0.22

Q: For A64U C113A, which self-cleavage is on record?
A: 0.17

Q: For A6G C113U, which self-cleavage is on record?
A: 0.84

Q: For U29A C145U, which self-cleavage is on record?
A: 0.61

Q: Which self-cleavage does the source give for U9C C17A here?
A: 1.31

Q: Which self-cleavage does the source give for U81A U102C here?
A: 2.18

Q: For A78C U96C, which self-cleavage is on record?
A: 0.29

Q: For G8U U115C, which self-cleavage is on record?
A: 1.93

Q: Which self-cleavage does the source give for U26A C28U here?
A: 0.99

Q: For U45A U134C, which self-cleavage is on record?
A: 1.49

Q: For A6G A117U, which self-cleavage is on record?
A: 2.04

Q: With U47A A92G as the variant, how does the self-cleavage read?
A: 0.17

Q: Which self-cleavage does the source give for U12G U39A here?
A: 1.05

Q: For U20C A43G, which self-cleavage is on record?
A: 1.35

Q: With U20A G53U as the variant, how does the self-cleavage read?
A: 1.1

Q: Which self-cleavage does the source give for A78G U102G here?
A: 0.2

Q: Which self-cleavage does the source give for U52A U112C here?
A: 1.43

Q: Which self-cleavage does the source give for G93A U102C here?
A: 0.06

Q: With U81A U104C as the variant, how does the self-cleavage read?
A: 2.77

Q: With A78G G114C as the variant, how does the self-cleavage read?
A: 1.09

Q: Which self-cleavage does the source give for C90U A138G here?
A: 0.04

Q: For U1C C19U, which self-cleavage is on record?
A: 0.66

Q: For U47G U73A, which self-cleavage is on record?
A: 1.18

Q: For A57U U134C, which self-cleavage is on record?
A: 0.12

Q: For U9C A79U, which self-cleavage is on record?
A: 1.66

Q: Which self-cleavage does the source give for U23C C56U here?
A: 0.23

Q: With U13C G70C as the variant, how does the self-cleavage read?
A: 0.15

Q: Which self-cleavage does the source give for G89A U143A here?
A: 0.05

Q: Which self-cleavage does the source give for U29C A142C here?
A: 1.06

Q: With U39G G135A as the variant, how does the self-cleavage read?
A: 1.86

Q: Which self-cleavage does the source give for U39G U112A here?
A: 1.65

Q: For U15C A121G, which self-cleavage is on record?
A: 1.34

Q: For G34U A43G, which self-cleavage is on record?
A: 1.06

Q: With A6U A65U as the variant, how does the self-cleavage read?
A: 0.33

Q: With U13A U104A as the variant, how does the self-cleavage read?
A: 0.94

Q: Which self-cleavage does the source give for A43U U143C here?
A: 0.51

Q: For A50G A138U, which self-cleavage is on record?
A: 0.95

Q: With A129G A140U as the variant, how does the self-cleavage read?
A: 1.8

Q: With A65U A136G as the variant, how does the self-cleavage read?
A: 0.2

Q: With A30U U45A as the variant, how does the self-cleavage read?
A: 1.14

Q: Which self-cleavage does the source give for U91A G144A here?
A: 0.88

Q: For C17U U26A, which self-cleavage is on record?
A: 0.85

Q: With U14C U26G as the variant, how does the self-cleavage read?
A: 1.61

Q: For A42G U46G, which self-cleavage is on record?
A: 1.02

Q: With G137A A138G as the variant, how does the self-cleavage read?
A: 1.38

Q: With A124G U143A as the variant, how does the self-cleavage read?
A: 0.98

Q: With A6U U45C as the variant, how does the self-cleavage read?
A: 1.35

Q: With U102C G114A as the variant, how does the self-cleavage read?
A: 1.21

Q: With U102C G114U as the variant, how does the self-cleavage read?
A: 1.62

Q: With A67U C90G as the variant, how does the self-cleavage read?
A: 0.04

Q: For G89C U119A, which self-cleavage is on record?
A: 0.02

Q: Which self-cleavage does the source give for U20C C98A here?
A: 0.07

Q: With U12G G58A as the variant, how does the self-cleavage read?
A: 0.11

Q: For C63U U87A, which self-cleavage is on record?
A: 0.07

Q: For U1A A24U, which self-cleavage is on record?
A: 1.28

Q: Which self-cleavage does the source give for G88A C110U here?
A: 0.04

Q: Which self-cleavage does the source give for A67G U85G here?
A: 0.12

Q: With C3U U87G as the variant, how does the self-cleavage read?
A: 0.32

Q: Which self-cleavage does the source give for U20A G137A here?
A: 1.29

Q: For U39A U130A, which self-cleavage is on record?
A: 1.38

Q: Which self-cleavage does the source give for A31G U45C here?
A: 1.07

Q: Which self-cleavage does the source give for U85G here?
A: 0.13

Q: Which self-cleavage does the source give for A64G C66U here?
A: 0.08

Q: With U47A G72A as the variant, how does the self-cleavage read?
A: 0.95

Q: For A24G A67U, which self-cleavage is on record?
A: 0.24

Q: Which self-cleavage does the source give for A64G A136G here?
A: 0.22

Q: With U39C A59G as the variant, how does the self-cleavage read?
A: 0.04

Q: For G34A C103U, which self-cleavage is on record?
A: 1.7

Q: For U46A U81C, which self-cleavage is on record?
A: 1.15

Q: For A50U A77G, which self-cleavage is on record?
A: 0.43

Q: With U46A A78U as the variant, how does the self-cleavage read?
A: 2.19

Q: With U29C G122U as the variant, how does the self-cleavage read?
A: 1.35

Q: With A42G A69C as the variant, how does the self-cleavage read?
A: 0.06

Q: For C3U A43G, which self-cleavage is on record?
A: 0.95

Q: For A6G G21U, which self-cleavage is on record?
A: 0.53

Q: With U9C A124C as the variant, how does the self-cleavage read?
A: 2.53

Q: Which self-cleavage does the source give for A30G A31G here?
A: 1.15

Q: Which self-cleavage does the source give for U134G U143G here?
A: 0.88

Q: For U96A A129U, which self-cleavage is on record?
A: 0.07

Q: For U73C U91A, which self-cleavage is on record?
A: 0.57

Q: For U46G A65G, which self-cleavage is on record?
A: 0.05

Q: For G4U A30G, which self-cleavage is on record?
A: 1.11

Q: Which self-cleavage does the source give for A79C A138U here?
A: 2.19

Q: Which self-cleavage does the source give for A57U U132C here?
A: 0.14

Q: Which self-cleavage does the source give for U20A G36C here?
A: 0.93

Q: Which self-cleavage does the source give for A22G G54U here?
A: 0.23

Q: With U12C U115A as the variant, how does the self-cleavage read?
A: 0.87

Q: With G10A U115A as the variant, how does the self-cleavage read?
A: 0.86

Q: For U1C A67G, which self-cleavage is on record?
A: 0.41

Q: Which self-cleavage does the source give for U29C A30G here?
A: 0.89

Q: With C103A U112C as the variant, how does the self-cleavage read?
A: 1.01

Q: For U29A A107G, which self-cleavage is on record?
A: 1.56

Q: Which self-cleavage does the source give for U12C A57G here?
A: 1

Q: With G11A U96C as the variant, how does the self-cleavage read?
A: 0.08

Q: For G125U A138G, which self-cleavage is on record?
A: 2.25

Q: Which self-cleavage does the source give for U81C C101U here?
A: 2.14

Q: Which self-cleavage does the source give for U39C G139A here?
A: 0.58

Q: Which self-cleavage does the source give for A50C A64U here?
A: 0.4

Q: For A124C U134C, which self-cleavage is on record?
A: 2.04

Q: For U46A U119A, which self-cleavage is on record?
A: 1.42

Q: For G60A G72A, which self-cleavage is on record?
A: 0.01

Q: Which self-cleavage does the source give for U62A G72C here?
A: 0.03

Q: For A57G A69G, which self-cleavage is on record?
A: 0.21

Q: With U62C U73G as the variant, how does the self-cleavage read?
A: 0.06

Q: With U87C G137U as the variant, how does the self-cleavage read?
A: 0.27

Q: For U15C A67C, which self-cleavage is on record?
A: 0.07

Q: Which self-cleavage does the source give for G35C U119C here?
A: 1.98

Q: With A43G G48A as the variant, how does the self-cleavage read?
A: 1.54

Q: For U23A A77U, which self-cleavage is on record?
A: 1.24

Q: For U87C G106A, which self-cleavage is on record?
A: 0.21

Q: For A67G U104A, which self-cleavage is on record?
A: 0.36

Q: For A64G A141C, which self-cleavage is on record?
A: 0.11

Q: For U13C G55U, which self-cleavage is on record?
A: 0.22

Q: For U100C U109C, which self-cleavage is on record?
A: 1.37

Q: For U73C A79U, which self-cleavage is on record?
A: 1.65

Q: With U29A U87C as the variant, how does the self-cleavage read?
A: 0.22

Q: For A24G A138U, which self-cleavage is on record?
A: 1.43

Q: With C18U A65G as the variant, how does the self-cleavage read?
A: 0.07

Q: With C17A A67G as the variant, how does the self-cleavage read?
A: 0.56

Q: Which self-cleavage does the source give for A43U A79G here?
A: 0.97

Q: Which self-cleavage does the source give for A43U A79U here?
A: 2.2

Q: Which self-cleavage does the source give for U13C G86A here?
A: 0.13

Q: Which self-cleavage does the source give for U15C U130C here?
A: 1.19

Q: With G27U G41U as the variant, how does the self-cleavage read?
A: 1.26

Q: Which self-cleavage does the source give for U130C A138U here?
A: 1.36

Q: For U20A A65G, which self-cleavage is on record?
A: 0.11

Q: With U26C A59G as the variant, how does the self-cleavage read?
A: 0.08

Q: With U102A A117G as the variant, how does the self-cleavage read?
A: 1.31

Q: For A78U C116G, which self-cleavage is on record?
A: 2.13

Q: With G49A U115C as the variant, how does the self-cleavage read?
A: 1.33

Q: With U52A U85A as the variant, how does the self-cleavage read?
A: 0.1

Q: With A65G G93A as the variant, how does the self-cleavage read?
A: 0.02

Q: Which self-cleavage does the source give for G32U C116U here?
A: 1.15

Q: Which self-cleavage does the source give for A121U U130C here?
A: 1.7
